For 6 molecules, EC50 (read off the curve) and Affinity compared to parent antibody (%) results are on record in patent US20260028400A1.

Assay [1] has as its target human- or mouse-derived ROR1 antigen (Sino Biological). The experiment in a line: ELISA on coated ROR1 antigen (human or mouse not said), OD450.
The target is the same in assay [2]. The assay can be described thus: ELISA on coated ROR1 antigen (Sino Biological), conjugate against parent antibody P015042.
Assay [3] shares this target. The assay can be described thus: ELISA on coated ROR1 antigen (Sino Biological), conjugate against parent antibody P015044.
Assay [4] has the same target. The experiment in a line: ELISA on coated ROR1 antigen (Sino Biological), conjugate against parent antibody P015004.

B1: P015042 (antibody, V domains shown)
VH: EVQLLESGGGLVQPGGSLRLSCAASGFTFSDYAMSWVRQAPGKGLEWVSVISSDGGSIYYADSVKGRFTISRDNSKNTLYLQMNSLRAEDTAVYYCAKDRSRDMEVDFDYWGQGTLVTVSS
VL: QSVLTQPPSASGTPGQRVTISCSGSSSNIGSNYVTWYQQLPGTAPKLLIYDSSQRPSGVPDRFSGSKSGTSASLAISGLRSEDEADYYCGTWDYSLSGYVFGGGTKLTVL
The molecule B1 returned an EC50 (read off the curve) in assay [1] of 0.5 nM.

B2: P015042-vc-PAB-MMAE (antibody, IgG1, V domains shown)
VH: EVQLLESGGGLVQPGGSLRLSCAASGFTFSDYAMSWVRQAPGKGLEWVSVISSDGGSIYYADSVKGRFTISRDNSKNTLYLQMNSLRAEDTAVYYCAKDRSRDMEVDFDYWGQGTLVTVSS
VL: QSVLTQPPSASGTPGQRVTISCSGSSSNIGSNYVTWYQQLPGTAPKLLIYDSSQRPSGVPDRFSGSKSGTSASLAISGLRSEDEADYYCGTWDYSLSGYVFGGGTKLTVL
modifications: maleimidocaproyl-valine-citrulline-p-aminobenzyloxycarbonyl monomethyl auristatin E on cysteine sulfhydryls of reduced disulfides; positions not given; average 3.3 drugs per antibody
As for B2, in assay [2], the Affinity compared to parent antibody (%) amounted to 99.3%. This molecule gave an EC50 (read off the curve) in assay [1] of 2 nM.

B3: P015044 (antibody, V domains shown)
VH: EVQLLESGGGLVQPGGSLRLSCAASGFTFSNYAMHWVRQAPGKGLEWVSIIYPDDDTRYNPSFRGRFTISRDNSKNTLYLQMNSLRAEDTAVYYCARDLLYAGDYWGQGTLVTVSS
VL: QSVLTQPPSASGTPGQRVTISCGGNNIESKAVHWYQQLPGTAPKLLIYANNKRPSGVPDRFSGSKSGTSASLAISGLRSEDEADYYCQSYDSNKVVFGGGTKLTVL
With B3, the EC50 (read off the curve) in assay [1] came out at 0.8 nM.

B4: P015044-vc-PAB-MMAE (antibody, IgG1, V domains shown)
VH: EVQLLESGGGLVQPGGSLRLSCAASGFTFSNYAMHWVRQAPGKGLEWVSIIYPDDDTRYNPSFRGRFTISRDNSKNTLYLQMNSLRAEDTAVYYCARDLLYAGDYWGQGTLVTVSS
VL: QSVLTQPPSASGTPGQRVTISCGGNNIESKAVHWYQQLPGTAPKLLIYANNKRPSGVPDRFSGSKSGTSASLAISGLRSEDEADYYCQSYDSNKVVFGGGTKLTVL
modifications: maleimidocaproyl-valine-citrulline-p-aminobenzyloxycarbonyl monomethyl auristatin E on cysteine sulfhydryls of reduced disulfides; positions not given; average 3.0 drugs per antibody
With B4, the Affinity compared to parent antibody (%) in assay [3] was 82.7%. Further, in assay [1], the EC50 (read off the curve) is 2 nM.

B5: P015004 (antibody, V domains shown)
VH: EVQLLESGGGLVQPGGSLRLSCAASGFTFSDYAMAWVRQAPGKGLEWVSIIYPGDSETIYSPSFEGRFTISRDNSKNTLYLQMNSLRAEDTAVYYCARDTYWEGYFDLWGQGTLVTVSS
VL: EIVLTQSPGTLSLSPGERATLSCRASQGISNYLAWYQQKPGQAPRLLIYDASNLESGIPDRFSGSGSGTDFTLTISRLEPEDFAVYYCQQYANLPYTFGQGTKVEIK
In turn, B5 displayed an EC50 (read off the curve) in assay [1] of 0.8 nM.

B6: P015004-vc-PAB-MMAE (antibody, IgG1, V domains shown)
VH: EVQLLESGGGLVQPGGSLRLSCAASGFTFSDYAMAWVRQAPGKGLEWVSIIYPGDSETIYSPSFEGRFTISRDNSKNTLYLQMNSLRAEDTAVYYCARDTYWEGYFDLWGQGTLVTVSS
VL: EIVLTQSPGTLSLSPGERATLSCRASQGISNYLAWYQQKPGQAPRLLIYDASNLESGIPDRFSGSGSGTDFTLTISRLEPEDFAVYYCQQYANLPYTFGQGTKVEIK
modifications: maleimidocaproyl-valine-citrulline-p-aminobenzyloxycarbonyl monomethyl auristatin E on cysteine sulfhydryls of reduced disulfides; positions not given; average 3.0 drugs per antibody
Consider B6, for which the Affinity compared to parent antibody (%) in assay [4] was found to be 80.3%. The EC50 (read off the curve) in assay [1] was determined as 2 nM.
